Source: publication PMC314469, “Protein Interaction Networks by Proteome Peptide Scanning” (PLoS Biology, 2004)

Target: Sho1 SH3 (SHO1_YEAST), P40073
Assay: SPOT array

Sho1 SH3 (SHO1_YEAST), P40073, sequence (P40073 295-366): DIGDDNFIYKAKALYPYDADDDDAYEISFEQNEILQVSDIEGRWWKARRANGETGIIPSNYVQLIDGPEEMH

Binder	normalised SPOT signal, Boehringer light units (BLU); mean over the file's lines of this peptide
LRKPRAPMRNVIIT [449-462 cytochrome oxidase assembly factor]	184
LHGPFKPVKSSNGE [25-38 Hypothetical ORF]	61.6
LPPPIIPLRKYGHN [693-706 Pho85 kinase inhibitor]	109
LRLPEIPPKGDFDV [1327-1340 mitohcondrial RNA polymerase]	977
LSKPSKPLKEIRFD [101-114 Hypothetical ORF]	477
LRDPVIPIKLAAEK [2564-2577 translational activator of GCN4 through activation of GCN2 in response to starvation]	122
LIMPIYPYRLVSTI [525-538 potential membrane glycoprotein with strong similarity to Vth2 and Pep1/Vps10]	338
LQIPPLPLKLLTPV [307-320 encodes the cytoplasmic trifunctional enzyme C1-tetrahydrofolate synthase]	48.1
LLKPETPSKRLVIR [249-262 kinesin-related protein involved in mitosis]	290
LPVPPPPVRPSISF [239-252 RNA polymerase II large subunit]	172
LLPPTDPFRRKHEQ [63-76 ribosomal protein (weak similarity)]	155
LMPPDSPPRMTENT [1790-1803 "RAP1-interacting factor, involved in establishment of repressed chromatin"]	121
LNSPDLPERTKLRN [445-458 Septin homolog]	110
LSLPRLPNKHHWPL [116-129 Hypothetical ORF]	2570
LIDPSTPDKAAKKD	103
LPVPQLPPKLLVYP [17-30 RNA polymerase II-associated protein]	16.2

Other lines, results leading:

normalised SPOT signal, Boehringer light units (BLU); mean over the file's lines of this peptide	Binder
80.2	LIPPGFPTKNYPPG [185-198 Hypothetical ORF]
88	LSSPSLPPKVNATN [325-338 Guanosine diphosphatase of Golgi membrane]
112	LRRPIFPGRDYRHQ [218-231 cdc2+/CDC28 related kinase with positive role in conjugation]
91.7	LPPPRSPNRPTLSD [363-376 Hypothetical ORF]
200	LRSPNTPRRLRKTL [198-211;312-325;376-389;96-109 Hypothetical ORF;Y'-helicase protein 1]
173	LPAPHRPEKYKERF [67-80 Hypothetical ORF]
67	LSTPSAPAKINNYS [605-618 Hypothetical ORF]
